Laboratory results published in patent US20220195015A1 (published 2022).
Positions count from the first letter of the chain named.

B1: C544 (antibody, V domains shown)
VH: QVQLVQSGAEVKKPGASVKVSCKASGYTFSSHDINWVRQATGQGLEWVGWMNPNSGNTGSAQSFQGRVTLTRNASISTAYLELSSLRSEDTAVYFCARGFSLTWYFDLWGRGTLVTVSS
VL: SYELTQPPSVSAAPGKTARITCGGNNIGGKNVHWYQQKPGQAPVLVVFDDSDRPSGIPERFSGSNSGNTATLTISRVEAGDEADYYCQLWDSTSDHPDVVFGGGTQLTVL
B2: C515 (antibody, V domains shown)
VH: EVQLVESGGGLVQPGGSLRLSCAASGFIVSSNYMSWVRQAPGKGLEWVSILYSGGSTYYADSVKGRFTISRDNSKNTLYLQMNSLRAEDTAVYYCARDLVVYGADYWGQGTLVTVSS
VL: DIQLTQSPSFLSASVGDRVTITCRASQGISSYLAWYQQKPGKAPKLLIYAASTLQSGVPSRFSGSGSGTEFTLTISSLQPEDFATYYCQQLNSYPPPFGGGTKVEIK
B3: C511 (antibody, V domains shown)
VH: EVQLVESGGGLVQPGGSLRLSCAATEITVSSNYMTWVRQAPGKGLEWVSVIYPGGSTFYADSVKGRFSISRDNSKNTLYLQMNSLRAEDTAVYYCARDLVVYGLDCWGQGTLVTVSS
VL: B2 VL with S93T
B4: C503 (antibody, V domains shown)
VH: QVQLQESGPGLVQPSGTLSLSCTVTGGSISSNNWWSWVRQSPVKGLEWIGEIYHNGNINYNPSLKSRVTMSIDKSKNHFSLKLSSVTAADTAVYYCARGDVLDWFDPWGQGTLVTVS
VL: QSALTQPASVSGSPGQSITFSCTGTSSDVGAYNYISWYQQHPGKAPKLMIYDVNNRPSGVSRRFSGSKSGNTASLTISGLQSEDEADYFCSSYAGNSTVRFGGGTKLTVL
B5: C543 (antibody, V domains shown)
VH: QVQLVESGGGVVQPGRSLRLSCTASGFTFSTAGMHWVRQAPGKGLEWVAVISYDGSNKDYADSVKGRFTISRDNSKSTLYLQMNSLRPEDTAVYYCAKDTPGGDDIMTGWGLYGMDVWGQGTTVTVSS
VL: DIQMTQSPSSLSASVGDRVTITCRASQSISSYLNWYHQKPGKAPKLLIYAAISLQSGVPSRFSGSGFGTDFTLTISSLQPEDFAIYYCQQSYSTPWTFGQGTKVEIK
B6: C547 (antibody, V domains shown)
VH: B5 VH with T23A, T31S, A32Y, D59Y, S77N, P88A, M107L
VL: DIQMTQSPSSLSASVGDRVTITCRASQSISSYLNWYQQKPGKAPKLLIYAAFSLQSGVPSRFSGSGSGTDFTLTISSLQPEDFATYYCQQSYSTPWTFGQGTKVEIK
B7: C517 (antibody, V domains shown)
VH: EVQLVESGGGLVQPGGSLRLSCAASEFIVSRNYMSWVRQAPGKGLEWVSLIYSGGSTYYADSVKGRFTISRDNSKNTLYLQMNSLRAEDTAMYYCARDIAGRLDYWGQGTLVTVSS
VL: DIQMTQSPSSLSASVGDRVTITCQASQDISKYLNWYQQKPGKAPKLLIYDASNLETGVPSRFSGSGSGTDFTFTISSLQPEDFATYYCQHYDSLSRLTFGGGTKVEIK
B8: C514 (antibody, V domains shown)
VH: B7 VH with S30T, S53P, Y58F, Y79F, Q81H, M92V, I99L
VL: B7 VL with S30N, K31N, Y32F, F83I, T85I, H90Q
B9: C073 (antibody, V domains shown)
VH: QLQLQESGPGLVKPSETLSLTCTVSGASIPSSTSYWGWIRQPPGKGLEWIGSIYYTGSTYYNPSLKSRVTISVDTSKNHFSLILSSVTAADTAVYYCARRSITLAGRDCLDFWGQGTLVTVSS
VL: DIQLTQSPSSLSASVGDRLTITCRASQSITTSLNWYQQKPGKAPKLLIYAASSLQSGVPSRFSGSGSGTDFTLAISSLQPEDFATYYCQQSYIPLLTFGGGTKVDIK
B10: C549 (antibody, V domains shown)
VH: QVQLVQSGAEVKKPGSSVKVSCKASGGTFSTSAISWVRQAPGQGLEWMGGIIPFFGTPNYAQKFQGRVTIIADESTTTAYMELSGLRFEDSAVYYCARREPYGPRDYYYFFGMDVWGPGTTVTVSS
VL: QSALTQPPFASASLGASVTLTCTLSSDYSYYKVDWYQQRPGKGPRFVIRVGPGGIVGSKGDGFPDRFSVLGSGLNRSLTINNIQEEDEGDYHCGADEGSGGTFVGVFGGGTKLTV
B11: C539 (antibody, V domains shown)
VH: EVQLVESGGGLVQPGRSLRLSCAASGFTFDDYALHWVRQAPGKGLEWVSGISWNGDSIGYADSVKGRFTISRDNAKNSLSLQMNSLTAEDTALYYCAKGVEYSSSSNCDYWGQGTLVTVSS
VL: DIQMTQSPSSVSASVGDRVTITCRASQDISSWLAWYQQKPGKAPKLLISLASGLQSGVPSRFSGSGSETDFTLTISSLQPEDFATYYCQQTNSFPLTFGGGTKVEI
B12: C542 (antibody, V domains shown)
VH: EVQLVESGGGLVQPGGSLRLSCAASGLTVTSNYMSWVRQAPGRGLEWVSLIYPGGTTYYADSVKGRFTVSRDNSKNTLYLQMDSLRAEDTGVYYCARETLGRGGDCWGQGTLVTVSS
VL: DIQMTQSPSSLSASVGDRVTITCQASQDISNFLNWYQQKPGKAPKLLIYDASNLETGVPSRFSGSRSGTDFTFTISSLQPDDIATYYCQQYDNLPRSFGQGTKLEIK
B13: C540 (antibody, V domains shown)
VH: EVQLVESGGGLVQPGGSLRLSCAASGFTFRNYDMHWVRQVAGKGLEWVSAIGTSGDTYYPDSVKGRFTISRENAKNSVYLQMNNLRAGDTAVYFCVRDREISGWTGWYFDLWGRGTLVTVSS
VL: DIQMTQSPSSLSASVGDRVTITCRASQTIHNYLNWYQQIPGKAPRLLIYATNTLQSGVPSRFSGSGSGTDFTLTITGLQPEDFATYYCQQSYSTPPITFGQGTRLEIK
B14: C548 (antibody, V domains shown)
VH: QVQLVQSGAEVKKPGSSVKVSCKASGGTFSSYAISWVRQAPGQGLEWMGGIIPIFGTANYAQKFQGRVTITADESTSTAYMELSSLRSEDTAVYYCARREAYGPRDYYYYYGMDVWGQGTTVTVSS
VL: QSALTQPPSASASLGASVTLTCTLSSGYSNYKVDWYQQRPGKGPRFVMRVGTGGIVGSKGDGIPDRFSVLGSGLNRYLTIKNIQEEDESDYHCGADQGSGSNFVGVFGGGTKLTVL
B15: C546 (antibody, V domains shown)
VH: EVQLLESGGGLVHPGGSLRLSCAASGFTFSTYAMHWVRQAPGKGLEWVSAISGSGTGTFYADSVKGRFSISRDNSKNTLYLQMNSLRAEDTAVYYCATERIAVSDTRMYNWFDPWGQGTLVTVSS
VL: DIQMTQSPSSLSASVGDRVTLTCRASQGISTYLNWYQQKPGKAPNLLIYAASSLQSGVPSRFSGSGSGTDFTLTISSLQPEDFATYYCQQSYSAPPWTFGQGTKVEIK
B16: C597 (antibody, V domains shown)
VH: QVQLVQSGPEVKKPGTSVKVSCKASGFTFTNSAVQWVRQSRRQRLEWIGWIVVGSGNTNYAQKFQERVTITRDMSTSTAYMELSSLRSEDTAVYYCAAVDCNSTSCYDAFDIWGQGTMVTVSS
VL: EIVLTQSPGTLSLSPGERATLSCRASQSFRSSYLAWYQQKPGQAPRLLIYGASSRATGIPDRFSGSGSGSDFTLTISRLEPEDFAVYYCQQYDISPWTFGQGTKVEIK
B17: C598 (antibody, V domains shown)
VH: QVQLVQSGPEVKKPGTSVKVSCKASGFTFSSSAVQWVRQARGQRLEWIGWIVVGSGNTNYAQKFQERVTITRDMSTSTAYMELSSLRSEDTAVFYCAAPYCNVTTCFDGFNIWGRGTMVTVSS
VL: B16 VL with F29V, L34F, G51A, S70T, V86L, D93G, I94S
B18: C516 (antibody, V domains shown)
VH: QVQLVQSGAEVKKPGSSVKVSCKASGGTFSSYAISWVRQAPGQGLEWMGRIIPMLVIATYARKFQGRVTITADKSTSTAYMELSSLRSEDTAVYYCARGVVAATPGNFDIWGQGTMVTVSS
VL: EIVMTQSPATLSVSPGERATLSCRASQSVSSNLAWYQQKPGQAPRLLIYGASTRATGIPARFSGSGSGTEFTLTISSLQSEDFAVYYCQQYNNGLTFGGGTKVEIK
B19: C502 (antibody, V domains shown)
VH: QVQLVQSGAEVKKPGSSVKVSCKASGDTFSSHAINWVRQAPGQGLEWMGRSIPMLGVTTSAQKFKGRVTITADHSTSTVFMDLSSLRSDDTAIYYCARGVVGATPGSFDLWGQGTMVTVSS
VL: B18 VL with E17K, S30R, K39R, G50D, S52A, A60T, N92D
B20: C545 (antibody, V domains shown)
VH: EVQLLESGGGLVKPGGSLRLSCAASGFTFSDYSMTWVRQAPGKGLEWVSFISSSSTYIYYADSVKGRFTISRDNAKSSLYLQMNRLRAEDTAVYYCTRVQVGARGWADYWGQGTLVTVSS
VL: NFMLTQPLSVSESPGKTVTISCTRSSGSIASNYVQWYQQRPGGAPTTVIYEDTQRPSGVPDRFSGSIDSSSNSASLTISGLKTEDEADYYCQSCDTINWVFGGGTKLTVV
B21: C513 (antibody, V domains shown)
VH: EVQLLESGGGLVQPGGSLRLSCVASGFSFSTYAMSWVRQAPGQGLEWVSTITGTSIGTYYADSVKGRFTISRDNSKNTVFLQMKSLRAEDAAVYYCANHPLASGDEYYYYYMDVWGKGTTVTVSS
VL: EIVLTQSPDTLSLSPGERATLSCRASQSVHSKQLAWYQQKPGQAPRLLIYGASSRATGIPDRFSGSGSGTDFTLTISRLEPEDFAVYYCQQYGSIRALTFGGGTKVEIK
B22: C077 (antibody, V domains shown)
VH: QVQLVQSGAEVKKPGASVKVSCKASGYTFTSYAMHWVRQAPGQRLEWMGWINTDNGNTKYSQKFQGRVTITRDTSASTAYMELSSLRSEDTAVYYCAREGALTNWFDPWGQGTLVTVSS
VL: SYELTQPPSVSVAPGQTARIPCGGNNIGSKSVHWYQQKPGQAPVLVVYDDSDRPSGIPERFSGSNSGNTATLTISRVEAGDEADYYCQVWDSSSDLHVVFGGGTKLTVL
B23: C132 (antibody, V domains shown)
VH: QVQLQESGPGLVKPSGTLSLTCAVSGGSISSNNWWSCVRQPPGKGLEWIGEIYHSGSTNYNPSLKSRVTISVDKSKNQFSLKLSSVTAADTAVYYCARGGDTAMGPEYFDYWGQGTLVTVSS
VL: QSALTQPASVSGSPGQSITISCTGTSSDVGGYNYVSWYQQHPGKAPKLMIYDVSNRPSGVSNRFSGSKSGNTASLTISGLQAEDEADYYCSSYTSSSTLLFGGGTKLTVL
B24: C512 (antibody, V domains shown)
VH: B23 VH with G26A, C37W, I52V, S55N, S57N, T58I, I70L, R98K, T102R, Y111S
VL: B23 VL with G31A, Y32N, S54N, N55E, A82T, Y93F, T94A

Columns and labels:
[1] = biological target: SARS-CoV-2 spike protein receptor binding domain (RBD) (SARS-CoV-2, UniProt P0DTC2 319-539); assay: ELISA, RBD coated on plate, mAb titrated
[2] = biological target: SARS-CoV-2 spike receptor binding domain (RBD), S protein residues 319-539 (SARS-CoV-2, UniProt P0DTC2 319-539); assay: ELISA on coated RBD

| Binder | EC50 [1] [ng/mL] | EC50 [2] [ng/mL] |
| --- | --- | --- |
| B1 | 2.34 | – |
| B2 | – | 1.73 |
| B3 | – | 1.33 |
| B4 | – | 6.48 |
| B5 | 1.28 | – |
| B6 | 1.78 | – |
| B7 | – | 0.87 |
| B8 | – | 0.82 |
| B9 | – | 20.6 |
| B10 | 1.76 | – |
| B11 | 1.3 | – |
| B12 | 1.07 | – |
| B13 | 2.9 | – |
| B14 | 1.72 | – |
| B15 | 3.57 | – |
| B16 | – | 3.77 |
| B17 | – | 3.78 |
| B18 | – | 5.72 |
| B19 | – | 6.48 |
| B20 | 3.68 | – |
| B21 | – | 1.31 |
| B22 | – | 45.9 |
| B23 | – | 3.56 |
| B24 | – | 1.68 |
